Source: PMC10928148
Where two headings read alike, the source gives them in different places.

Columns and labels:
[1] = target: Delta variant S protein on plant-produced virus-like particles (SARS-CoV-2 (Delta variant)) (UniProt P0DTC2); assay: ELISA
[2] = target: Delta variant S protein on plant-produced virus-like particles (SARS-CoV-2 (Delta variant)) (UniProt P0DTC2); assay: ELISA; remark: listed apart in the source

Substance | EC50 [1] [nM] | EC50 [2] [nM]
COVA2-15 secretory IgA1 (from UniProt P01591 23-159; P01833 19-764) (antibody) | 0.086 | –
COVA2-15 secretory IgA2 (from UniProt P01591 23-159; P01833 19-764) (antibody) | 0.542 | –
COVA2-15 secretory IgA1 (from UniProt P01591 23-159; P01833 19-603) (antibody) | – | 0.09
COVA2-15 monomeric IgA1 (antibody) | 1.95 | –
COVA2-15 monomeric IgA2 (antibody) | 2.06 | –
COVA2-15 IgG (antibody) | 9.03 | 9
